This experiment concerns the target C-terminal hexahistidyl-tagged GluN3A subunit (UniProt Q9R1M7). Nature of the experiment: pull-down.

C-terminal hexahistidyl-tagged GluN3A subunit, sequence (Q9R1M7 24-1135): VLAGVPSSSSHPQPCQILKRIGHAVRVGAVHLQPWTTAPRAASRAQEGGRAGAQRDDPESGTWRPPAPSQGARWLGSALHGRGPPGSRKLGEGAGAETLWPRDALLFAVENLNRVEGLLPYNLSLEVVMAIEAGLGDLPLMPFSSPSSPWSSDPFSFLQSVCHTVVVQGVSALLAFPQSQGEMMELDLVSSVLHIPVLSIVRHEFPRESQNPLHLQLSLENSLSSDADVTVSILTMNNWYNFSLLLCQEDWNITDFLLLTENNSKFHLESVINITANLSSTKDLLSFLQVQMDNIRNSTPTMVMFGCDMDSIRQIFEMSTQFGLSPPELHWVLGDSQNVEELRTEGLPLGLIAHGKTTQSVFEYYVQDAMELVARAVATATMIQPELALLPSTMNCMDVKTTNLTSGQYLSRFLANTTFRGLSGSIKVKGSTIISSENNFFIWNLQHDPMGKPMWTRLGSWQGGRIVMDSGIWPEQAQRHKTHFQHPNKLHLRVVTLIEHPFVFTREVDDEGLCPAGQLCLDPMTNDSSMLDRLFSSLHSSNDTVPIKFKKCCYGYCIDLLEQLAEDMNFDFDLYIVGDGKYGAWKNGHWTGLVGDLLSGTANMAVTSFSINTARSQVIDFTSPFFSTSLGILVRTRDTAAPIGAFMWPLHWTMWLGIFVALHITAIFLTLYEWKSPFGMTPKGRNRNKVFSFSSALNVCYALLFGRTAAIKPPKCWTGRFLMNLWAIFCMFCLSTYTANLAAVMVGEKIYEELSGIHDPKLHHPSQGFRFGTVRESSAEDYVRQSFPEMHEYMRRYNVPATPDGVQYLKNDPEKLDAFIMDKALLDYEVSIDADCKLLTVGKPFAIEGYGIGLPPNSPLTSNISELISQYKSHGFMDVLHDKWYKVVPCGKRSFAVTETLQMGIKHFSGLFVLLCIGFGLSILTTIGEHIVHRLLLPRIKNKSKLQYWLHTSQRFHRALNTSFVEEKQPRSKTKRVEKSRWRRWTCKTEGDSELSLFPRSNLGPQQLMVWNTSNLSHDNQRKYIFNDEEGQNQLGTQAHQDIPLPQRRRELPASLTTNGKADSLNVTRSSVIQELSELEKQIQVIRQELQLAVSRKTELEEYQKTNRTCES

With “GluN1-1a (splice variant 1a) NMDA receptor subunit, wild type (from UniProt P35439 19-938)”, the stoichiometry N – broadly, the number of molecules, sites or subunits per partner or assembly – came to 1. In the case of “GluN1^1-802, M4-deleted GluN1 (from UniProt P35439 19-802) (domain or fragment)”, the stoichiometry N came to 1.
